Measurements as given in PMC2655686.

Biological target: TRF2BH (basic region + TRFH) (UniProt Q15554 45-289)
Assay: EMSA

TRF2BH (basic region + TRFH), sequence (Q15554 45-289): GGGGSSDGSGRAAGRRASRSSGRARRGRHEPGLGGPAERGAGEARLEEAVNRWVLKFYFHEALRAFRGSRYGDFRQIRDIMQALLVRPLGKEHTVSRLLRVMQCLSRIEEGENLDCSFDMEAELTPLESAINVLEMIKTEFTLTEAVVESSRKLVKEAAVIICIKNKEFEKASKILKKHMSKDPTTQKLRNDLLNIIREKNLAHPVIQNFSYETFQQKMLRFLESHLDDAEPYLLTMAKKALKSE

TTAGGGTTAGGGTTAGGGTTAGGGTTAGGGTTAGGGTTAGGG (structured_DNA) [T7]: binds.
